Test results from patent US20210253718A1 (MODMAB THERAPEUTICS, published 2021).
Positions count from the first letter of the chain named.

T1: FZD9 cysteine-rich domain (CRD), MYC-tagged and GPI-anchored on CHO cells (human, UniProt O00144 35-161, GPI anchor)
T1 construct: also called FZD9 CRD; CHO-myc-FZDGPI; not shown: MYC tag and GPI anchor signal
T1 sequence: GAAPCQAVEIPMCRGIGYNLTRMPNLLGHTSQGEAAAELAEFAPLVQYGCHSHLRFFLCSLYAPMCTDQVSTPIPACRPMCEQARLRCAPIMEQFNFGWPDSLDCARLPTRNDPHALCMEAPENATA

T2: FZD5 cysteine-rich domain (CRD), MYC-tagged and GPI-anchored on CHO cells (human, UniProt Q13467 29-156, GPI anchor)
T2 construct: also called FZD5 CRD; CHO-myc-FZDGPI; not shown: MYC tag and GPI anchor signal
T2 sequence: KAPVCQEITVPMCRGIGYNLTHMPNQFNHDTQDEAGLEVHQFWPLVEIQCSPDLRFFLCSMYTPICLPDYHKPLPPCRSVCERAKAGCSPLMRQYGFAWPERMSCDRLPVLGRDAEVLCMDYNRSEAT

T3: FZD4 cysteine-rich domain (CRD), MYC-tagged and GPI-anchored on CHO cells (human, UniProt Q9ULV1 42-167, GPI anchor)
T3 construct: also called FZD4 CRD; CHO-myc-FZDGPI; not shown: MYC tag and GPI anchor signal
T3 sequence: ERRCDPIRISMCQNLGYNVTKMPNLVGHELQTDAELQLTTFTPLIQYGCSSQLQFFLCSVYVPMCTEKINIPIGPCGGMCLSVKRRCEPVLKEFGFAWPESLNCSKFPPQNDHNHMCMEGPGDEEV

T4: FZD10 cysteine-rich domain (CRD), MYC-tagged and GPI-anchored on CHO cells (human, UniProt Q9ULW2 30-156, GPI anchor)
T4 construct: also called FZD10 CRD; CHO-myc-FZDGPI; not shown: MYC tag and GPI anchor signal
T4 sequence: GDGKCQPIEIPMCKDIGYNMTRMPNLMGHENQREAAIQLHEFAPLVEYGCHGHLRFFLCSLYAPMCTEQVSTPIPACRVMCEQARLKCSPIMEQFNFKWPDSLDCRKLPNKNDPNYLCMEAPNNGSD

T5: FZD6 cysteine-rich domain (CRD), MYC-tagged and GPI-anchored on CHO cells (human, UniProt O60353 20-146, GPI anchor)
T5 construct: also called FZD6 CRD; CHO-myc-FZDGPI; not shown: MYC tag and GPI anchor signal
T5 sequence: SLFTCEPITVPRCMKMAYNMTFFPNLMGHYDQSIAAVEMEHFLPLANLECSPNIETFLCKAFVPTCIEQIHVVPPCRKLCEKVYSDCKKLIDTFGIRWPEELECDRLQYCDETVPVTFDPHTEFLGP

T6: FZD3 cysteine-rich domain (CRD), MYC-tagged and GPI-anchored on CHO cells (human, UniProt Q9NPG1 24-150, GPI anchor)
T6 construct: domain: cysteine-rich domain (CRD); also called FZD3 CRD; CHO-myc-FZDGPI; not shown: MYC tag and GPI anchor signal
T6 sequence (looked up): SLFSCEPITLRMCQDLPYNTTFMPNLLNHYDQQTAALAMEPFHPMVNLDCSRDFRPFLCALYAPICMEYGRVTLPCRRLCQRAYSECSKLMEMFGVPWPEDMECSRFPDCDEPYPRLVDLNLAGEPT

T7: FZD8 cysteine-rich domain (CRD), MYC-tagged and GPI-anchored on CHO cells (human, UniProt Q498S8 31-155 (rat entry), GPI anchor)
T7 construct: also called FZD8 CRD; CHO-myc-FZDGPI; not shown: MYC tag and GPI anchor signal
T7 sequence: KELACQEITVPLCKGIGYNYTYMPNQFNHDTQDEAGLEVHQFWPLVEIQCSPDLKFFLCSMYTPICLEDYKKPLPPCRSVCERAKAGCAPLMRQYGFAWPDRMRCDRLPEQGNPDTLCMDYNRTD

B1: Fab-2920 (Fab, V domains shown)
VH: EVQLVESGGGLVQPGGSLRLSCAASGFNISYYYIHWVRQAPGKGLEWVASIYPSSGSTSYADSVKGRFTISADTSKNTAYLQMNSLRAEDTAVYYCARGGMDYWGQGTLVTVSS
VL: DIQMTQSPSSLSASVGDRVTITCRASQSVSSAVAWYQQKPGKAPKLLIYSASSLYSGVPSRFSGSRSGTDFTLTISSLQPEDFATYYCQQWFAGALITFGQGTKVEIK
notes: Fab
B2: Fab-2936 (Fab, V domains shown)
VH: B1 VH with I34M, P53S, G99A, G100A
VL: B1 VL with F92Y, G94A, A95S
notes: Fab; also called Fv-2936
B3: Fab-2924 (Fab, V domains shown)
VH: B1 VH with Y32S, P53S, S54Y, S55Y, G56S, G100A, M101L
VL: DIQMTQSPSSLSASVGDRVTITCRASQSVSSAVAWYQQKPGKAPKLLIYSASSLYSGVPSRFSGSRSGTDFTLTISSLQPEDFATYYCQQWYSGHSLITFGQGTKVEIK
notes: Fab; also called Fv-2924
B4: Fab-2922 (Fab, V domains shown)
VH: EVQLVESGGGLVQPGGSLRLSCAASGFNIYSSYMHWVRQAPGKGLEWVASISPYSGYTSYADSVKGRFTISADTSKNTAYLQMNSLRAEDTAVYYCARTVRGSKKPYFSGWAMDYWGQGTLVTVSS
VL: B3 VL with W91S, Y92F, S93V, G94Y, H95P, S96Y
notes: Fab; also called Fv-2922

These binders were tested against T1, FZD9 cysteine-rich domain (CRD), … (assay: flow cytometry, CHO-CRD cells;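 note: flow cytometry of Fab binding to CHO cells overexpressing a Frizzled CRD, with binding defined as median fluorescence over twice that of CHO cells lacking any Frizzled CRD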).
Experimental: (§1) Binding was measured via flow cytometry analysis of CHO cells overexpressing CRD of FZD1, FZD2, FZD3, FZD4, FZD5, FZD6, FZD7, FZD8, FZD9 or FZD10. Median fluorescence values are shown.

median fluorescence | Binder
2.89 | B1
2.74 | B2
4.49 | B3
2.89 | B4

What follows are binders tested against T2, FZD5 cysteine-rich domain (CRD), … (assay: flow cytometry, CHO-CRD cells;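 note: flow cytometry of Fab binding to CHO cells overexpressing a Frizzled CRD, with binding defined as median fluorescence over twice that of CHO cells lacking any Frizzled CRD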).
Experimental: as §1

median fluorescence | Binder
28.6 | B1
23.5 | B2
39.2 | B3
56.2 | B4

Each binder was assayed against T8, FZD7 cysteine-rich domain (CRD), MYC-tagged and GPI-anchored on CHO cells (human, UniProt O75084 45-169) (assay: flow cytometry, CHO-CRD cells;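 note: flow cytometry of Fab binding to CHO cells overexpressing a Frizzled CRD, with binding defined as median fluorescence over twice that of CHO cells lacking any Frizzled CRD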).
Experimental: as §1

median fluorescence | Binder
4.91 | B1
2.55 | B2
6.49 | B3
2.62 | B4

The binders below were run against T3, FZD4 cysteine-rich domain (CRD), … (assay: flow cytometry, CHO-CRD cells;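 note: flow cytometry of Fab binding to CHO cells overexpressing a Frizzled CRD, with binding defined as median fluorescence over twice that of CHO cells lacking any Frizzled CRD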).
Experimental: as §1

median fluorescence | Binder
4.22 | B1
3.65 | B2
6.38 | B3

Each binder was assayed against T4, FZD10 cysteine-rich domain (CRD), … (assay: flow cytometry, CHO-CRD cells).
Experimental: as §1

median fluorescence | Binder
2.94 | B1
2.5 | B2
4.78 | B3
2.74 | B4

The binders below were run against T5, FZD6 cysteine-rich domain (CRD), … (assay: flow cytometry, CHO-CRD cells).
Experimental: as §1

median fluorescence | Binder
3.02 | B1
2.57 | B2
4.49 | B3
3.68 | B4

What follows are binders tested against T6, FZD3 cysteine-rich domain (CRD), … (assay: flow cytometry, CHO-CRD cells).
Experimental: as §1

median fluorescence | Binder
3.75 | B1
3 | B2
4.7 | B3
4.1 | B4

What follows are binders tested against T7, FZD8 cysteine-rich domain (CRD), … (assay: flow cytometry, CHO-CRD cells).
Experimental: as §1

median fluorescence | Binder
7.5 | B1
7.04 | B2
12.1 | B3
9.14 | B4

The binders below were run against T9, FZD1 cysteine-rich domain (CRD), MYC-tagged and GPI-anchored on CHO cells (human) (assay: flow cytometry, CHO-CRD cells).
Experimental: as §1

median fluorescence | Binder
5.73 | B1
3.05 | B2
6.26 | B3
4.83 | B4

What follows are binders tested against T10, FZD2 cysteine-rich domain (CRD), MYC-tagged and GPI-anchored on CHO cells (human, UniProt Q14332 35-161) (assay: flow cytometry, CHO-CRD cells).
Experimental: as §1

median fluorescence | Binder
4.57 | B1
3.52 | B2
6.73 | B3
4.78 | B4

These binders were tested against T1, FZD9 cysteine-rich domain (CRD), … (assay: immunofluorescence, CHO-CRD cells).

binding result | Binder
no binding | B1
no binding | B2
no binding | B3
no binding | B4

Each binder was assayed against T8, FZD7 cysteine-rich domain (CRD), … (assay: immunofluorescence, CHO-CRD cells).

binding result | Binder
no binding | B1
no binding | B2
no binding | B3
no binding | B4

These binders were tested against T3, FZD4 cysteine-rich domain (CRD), … (assay: immunofluorescence, CHO-CRD cells).

binding result | Binder
no binding | B1
no binding | B2
no binding | B3

These binders were tested against T4, FZD10 cysteine-rich domain (CRD), … (assay: immunofluorescence, CHO-CRD cells).

binding result | Binder
no binding | B1
no binding | B2
no binding | B3
no binding | B4

Each binder was assayed against T5, FZD6 cysteine-rich domain (CRD), … (assay: immunofluorescence, CHO-CRD cells).

binding result | Binder
no binding | B1
no binding | B2
no binding | B3
no binding | B4

What follows are binders tested against T6, FZD3 cysteine-rich domain (CRD), … (assay: immunofluorescence, CHO-CRD cells).

binding result | Binder
no binding | B1
no binding | B2
no binding | B3
no binding | B4

The binders below were run against T9, FZD1 cysteine-rich domain (CRD), … (assay: immunofluorescence, CHO-CRD cells).

binding result | Binder
no binding | B1
no binding | B2
no binding | B3
no binding | B4

Each binder was assayed against T10, FZD2 cysteine-rich domain (CRD), … (assay: immunofluorescence, CHO-CRD cells).

binding result | Binder
no binding | B1
no binding | B2
no binding | B3
no binding | B4
